Source: patent US20070248589A1 (GOVERNMENT OF THE UNITED STATES OF AMERICA AS REPRESENTED …, published 2007)

T1: GST-SPATIAL(L) (Mus musculus, UniProt Q7TSD4)
T1 construct: made in house
T1 sequence (Q7TSD4 with tags, fused parts or gaps isoform Q7TSD4-6 limits assumed): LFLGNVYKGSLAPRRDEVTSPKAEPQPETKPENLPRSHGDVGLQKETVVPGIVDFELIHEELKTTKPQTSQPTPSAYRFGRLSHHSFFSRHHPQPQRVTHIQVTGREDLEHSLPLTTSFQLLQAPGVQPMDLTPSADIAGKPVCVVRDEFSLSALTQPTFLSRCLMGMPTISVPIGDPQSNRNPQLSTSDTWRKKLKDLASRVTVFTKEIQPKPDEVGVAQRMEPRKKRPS

T2: GST-SPATIAL(S) (Mus musculus, UniProt Q7TSD4)
T2 construct: made in house
T2 sequence (Q7TSD4 with tags, fused parts or gaps isoform Q7TSD4-7 limits assumed): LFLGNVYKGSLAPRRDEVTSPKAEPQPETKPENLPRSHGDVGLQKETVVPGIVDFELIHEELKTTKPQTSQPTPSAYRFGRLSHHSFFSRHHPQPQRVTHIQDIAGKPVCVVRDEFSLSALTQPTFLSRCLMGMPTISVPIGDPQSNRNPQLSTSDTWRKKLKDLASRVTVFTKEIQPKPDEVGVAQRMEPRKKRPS

B1: GST-SPATIAL short isoform fusion protein (other)
chain: T2 sequence (Q7TSD4 with tags, fused parts or gaps isoform Q7TSD4-7 limits assumed)
notes: SPATIAL cDNA cloned into pGEx5X1, expressed in bacteria and held on glutathione-Sepharose beads; not shown: glutathione-S-transferase (GST) encoded by the pGEx5X1 expression vector
B2: Delta24-646: Uba3 deletion mutant, amino acid deletion 1-202 (protein)
chain: TLELYPPQVNFPMCTIASMPRLPEHCIEYVRMLQWPKEQPFGDGVPLDGDDPEHIQWIFQKSIERASQYNIRGVTYRLTQGVVKRIIPAVASTNAVIAAVCATEVFKIATSAYIPLNNYLVFNDVDGLYTYTFEAERKENCPACSQLPQNIQFSPSAKLQEVLDYLTNSASLQMKSPAITATLEGKNRTLYLQSVTSIEERTRPNLSKTLKELGLVDGQELAVADVTTPQTVLFKLHFT
B3: GST-SPATIAL long isoform fusion protein (other)
chain: T1 sequence (Q7TSD4 with tags, fused parts or gaps isoform Q7TSD4-6 limits assumed)
notes: as for B1
B4: Delta941-1365: Uba3 deletion mutant, amino acid deletion 301-441 (protein)
chain: MAVDGGCGDTGDWEGRWNHVKKFLERSGPFTHPDFEPSTESLQFLLDTCKVLVIGAGGLGCELLKNLALSGFRQIHVIDMDTIDVSNLNRQFLFRPKDVGRPKAEVAAEFLNDRVPNCNVVPHFNKIQDFNDTFYRQFHIIVCGLDSIIARRWINGMLISLLNYEDGVLDPSSIVPLIDGGTEGFKGNARVILPGMTACIECTLELYPPQVNFPMCTIASMPRLPEHCIEYVRMLQWPKEQPFGDGVPLDGDDPEHIQWIFQKSIERASQYNIRGVTYRLTQGVVKRIIPAVASTNAVIA

Columns and labels:
lymphoid cells = experiment: Thymocyte depletion of fetal thymic organ culture (FTOC); assay type: cell-based, mouse; details: after 14 days, flow cytometric analysis
Source text: SPATIAL expression cannot be detected in thymocytes using RT-PCR on RNA obtained from highly purified CD45+ thymocytes prepared by flow cytometer sorting from normal mice. Actin and cyclophilin mRNA was readily detected using the same RNA samples. To examine SPATIAL expression in stromal cells, thymii from day 14 mouse fetuses were harvested and cultured in fetal thymic organ culture (FTOC). The FTOC was specifically depleted of thymocytes using 2-deoxyguanosine treatment 2-deoxyguanosine is a nucleotide analog that is toxic to thymocytes. […] These cultures can be re-colonized by stem cells and are fully capable of supporting thymopoiesis (Hare et al., Semin. Immunol., 11(1):3-12, 1999). Using RT-PCR, it was shown that SPATIAL is abundantly expressed in thymic stromal cells obtained from FTOC (Flomerfelt et al., Genes and Immunity, 1:391-401, 2000).

Hb12 cells = experiment: Bcl-2 expression assay, SPATIAL-EGFP transfected Bcl-2 expressing thymocyte cell line; assay type: cell-based, mouse; details: Bcl-2 expression, FIG. 17B
Method: The mouse thymocyte cell line Wehi 7.2 and its variant Wbcl-2, which over expresses bcl-2, were maintained in DMEM supplemented with 10% heat-inactivated FBS, 2 mM glutamine, 100 U/ml penicillin, and 0.1 mg/ml streptomycin. Cells were grown at 37° C. in a humidified atmosphere with 5% CO2.
Transient transfections were performed using either lipids (Lipofectamine 2000 or FreeStyle 293 Expression System, each supplied by Invitrogen, Rockville, Md.) or calcium phosphate (Mammalian Transfection Kit; Stratagene, La Jolla, Calif.) or electroporation. Manufacturer instructions were followed for lipid and calcium phosphate transfections. For electroporation, the following procedure was used: Before transfection, Wehi cell and Wbcl-2 cells were counted and suspended in fresh complete DMEM without antibiotics at 5×10^5 cells/ml in a 15 cm dish. On the day of transfection, the cells were washed with PBS twice and were suspended in serum free DMEM at 6.25×10^6 cells/mL Aliquots of 800 μl cell suspension were transferred to a 4 mm electroporation cuvette and 10 μg of plasmid DNA solution was added. After 10 minutes incubation on ice, the cells were electroporated under the condition of 310 V, 725 ohms resistance, and 1050 μF capacitance. The transfected cells were incubated on ice for 10 minutes and suspended in complete DMEM in 10 cm dishes at the density of 7.5×10^4 viable cells/ml. […]

GST-SPATIAL(L) = target: T1, GST-SPATIAL(L); experiment: GST pulldown assay with GST-SPATIAL long isoform; assay type: binding; details: 35S-methionine labeled in vitro translated protein
Method: (§1) Eighteen cDNA clones identified in the yeast two-hybrid system were tested in an in vitro glutathione-S-transferase (GST) pulldown assay, as described in Ausubel et al., Current Protocols in Molecular Biology, Greene Publishing Associates, updated November 2003, Chapter 20, Analysis of Protein Interactions, Unit 20.2, Affinity Purification of Proteins Binding to GST Fusion Proteins.
(§2) Briefly, a GST-SPATIAL fusion construct was produced by cloning SPATIAL cDNA(s) into pGEx5X1 expression vector using standard molecular cloning techniques. GST or GST-SPATIAL fusion protein were expressed in 1-1000 ml bacterial cultures grown for 3-4 hours until OD600 reached 0.5. Then, plasmid expression was induced for 1.5-4 hours by the addition of ITPG to a final concentration of 0.11 mM. GST or GST-fusion proteins were purified using glutathione-Sepharose beads as described in Ausubel et al., Current Protocols in Molecular Biology, Greene Publishing Associates, updated November 2003, Chapter 20, Analysis of Protein Interactions, Unit 20.2, Affinity Purification of Proteins Binding to GST Fusion Proteins.
(§3) A coupled in vitro transcription and translation system (Promega) was used according to the manufacturer's instructions to produce radiolabeled protein from cDNAs to be tested. Radiolabeled proteins were mixed with either purified GST or GST-SPATIAL. Then, GST-containing protein complexes were purified by centrifugation from the reaction mixtures using glutathione-coated Sepharose beads. Bound proteins were eluted from the beads with SDS-PAGE loading buffer heated to 72-85° C., separated on polyacrylamide gels, and visualized by autoradiography. Specific interactions between GST-SPATIAL and in vitro translated proteins were indicated by the presence of a radiolabeled in vitro translated protein in the GST-SPATIAL-containing samples, but not in the GST-alone samples.
(§4) GST pulldown assays were performed as described in Example 9 using GST-SPATIAL(L) and GST-SPATIAL(S) and each of the Uba3 mutants described in this example.

GST-SPATIAL(S) = target: T2, GST-SPATIAL(S); experiment: GST pulldown assay with GST-SPATIAL short isoform; assay type: binding; details: 35S-methionine labeled in vitro translated protein
Method: as §1, §2, §3, §4

[1] = target: T3, Uba3 deletion mutant Delta364-912 (mouse, UniProt Q8C878 22-462, 35S-methionine labeled); experiment: GST pulldown of 35S-labelled in vitro translated Uba3 mutant
T3 construct: Amino acids 109-291 are deleted (PstI fragment removed); also called PstI digest
Method: as §3, §4

Molecule | interaction with GST-SPATIAL(L) (GST-SPATIAL(L)) | interaction with GST-SPATIAL(S) (GST-SPATIAL(S)) | further results
Nc1nc2c(ncn2[C@H]2C[C@H](O)[C@@H](CO)O2)c(=O)[nH]1 [2-deoxyguanosine] | – | – | lymphoid cells depleted (lymphoid cells): greater than 98%
Bcl-2: human Bcl-2 gene expressed in Hb12 cells, inhibits apoptosis | – | – | reversal of growth suppressive effect of SPATIAL-EGFP transfection (Hb12 cells): ineffective to reverse the growth suppressive effect
Delta364-912: Uba3 deletion mutant, amino acid deletion 109-291 (PstI digest) | does not interact | does not interact | –
B1 | – | – | binding result [1]: no binding
B2 | interact | interact | –
B3 | – | – | binding result [1]: no binding
B4 | interact | interact | –
